Data from US20230120736A1, “ANTI-CD98 ANTIBODIES AND ANTIBODY DRUG CONJUGATES” (AbbVie Inc., priority 2016, published 2023).

T1: human CD98 (Homo sapiens, UniProt P08195)
T1 sequence (P08195 1-630 isoform P08195-1): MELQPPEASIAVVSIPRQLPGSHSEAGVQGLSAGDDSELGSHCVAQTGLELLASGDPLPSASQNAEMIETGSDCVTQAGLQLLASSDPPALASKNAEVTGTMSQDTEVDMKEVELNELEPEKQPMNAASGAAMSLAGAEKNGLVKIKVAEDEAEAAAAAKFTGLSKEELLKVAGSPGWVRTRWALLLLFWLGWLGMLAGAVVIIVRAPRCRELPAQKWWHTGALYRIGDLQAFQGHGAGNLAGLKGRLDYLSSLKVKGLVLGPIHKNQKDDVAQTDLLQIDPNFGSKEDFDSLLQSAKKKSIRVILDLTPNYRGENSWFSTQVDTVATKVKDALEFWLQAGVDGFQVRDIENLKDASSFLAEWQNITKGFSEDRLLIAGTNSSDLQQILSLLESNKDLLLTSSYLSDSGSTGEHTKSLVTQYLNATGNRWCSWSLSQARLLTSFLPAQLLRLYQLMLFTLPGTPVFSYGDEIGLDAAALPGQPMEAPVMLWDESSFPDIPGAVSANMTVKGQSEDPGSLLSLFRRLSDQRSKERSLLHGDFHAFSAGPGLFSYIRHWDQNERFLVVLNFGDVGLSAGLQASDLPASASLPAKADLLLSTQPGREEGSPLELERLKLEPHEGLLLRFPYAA

T2: human CD98 ECD (Homo sapiens, UniProt P08195)
T2 construct: Human CD98 ECD with C-terminal His-tag
T2 sequence (P08195 with tags, fused parts or gaps): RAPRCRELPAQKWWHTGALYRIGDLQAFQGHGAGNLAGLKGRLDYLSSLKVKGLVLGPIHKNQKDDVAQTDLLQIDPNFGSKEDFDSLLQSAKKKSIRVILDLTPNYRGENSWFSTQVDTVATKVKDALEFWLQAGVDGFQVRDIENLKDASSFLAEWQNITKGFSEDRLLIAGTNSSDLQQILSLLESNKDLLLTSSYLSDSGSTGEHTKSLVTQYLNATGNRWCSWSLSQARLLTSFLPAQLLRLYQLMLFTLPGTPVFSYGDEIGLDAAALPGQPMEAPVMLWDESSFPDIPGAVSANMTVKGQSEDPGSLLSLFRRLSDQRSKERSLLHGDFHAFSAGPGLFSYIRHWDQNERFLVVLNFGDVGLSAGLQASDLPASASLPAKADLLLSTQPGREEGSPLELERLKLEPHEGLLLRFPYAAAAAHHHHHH


Experiments:
human CD98 = target: T1, human CD98; test: Binding of humanized antibodies to human CD98; conditions: humanized framework engineered antibodies
[1] = Conjugation of anti-CD98 mAbs with Bcl-xL inhibitor synthons (precipitation, DAR, recovery, aggregation); conditions: Method E
Protocol: Method A. A solution of BOND-BREAKER tris(2-carboxyethyl)phosphine (TCEP) solution (10 mM, 0.017 mL) was added to a solution of antibody (10 mg/mL, […]) preheated to 37° C. The reaction mixture was kept at 37° C. for 1 hour. The solution of reduced antibody was added to a solution of synthon (3.3 mM, 0.160 mL in DMSO) and gently mixed for 30 minutes. The reaction solution was loaded onto a desalting column (PD10, washed with DPBS 3x before use), followed by DPBS (1.6 mL) and eluted with additional DPBS (3 mL). The purified ADC solution was filtered through a 0.2 micron, low protein-binding 13 mm syringe-filter and stored at 4° C.
Method E. A solution of BOND-BREAKER tris(2-carboxyethyl)phosphine (TCEP) solution (10 mM, 0.017 mL) was added to the solution of antibody (10 mg/mL, 1 mL) at room temperature. The reaction mixture was heated to 37° C. for 75 minutes. The solution of reduced antibody cooled to room temperature and was added to a solution of synthon (10 mM, 0.040 mL in DMSO) followed by addition of boric buffer (0.1 mL, 1M, pH 8). The reaction solution was let to stand for 3 days at room temperature, loaded onto a desalting column (PD10, washed with DPBS 3×5 mL before use), followed by DPBS (1.6 mL) and eluted with additional DPBS (3 mL). The purified ADC solution was filtered through a 0.2 micron, low protein-binding 13 mm syringe-filter and stored at 4° C.

human CD98 ECD = target: T2, human CD98 ECD; test: Biacore surface plasmon resonance binding kinetics (anti-Fc capture); conditions: huCD98 ECD
Protocol: (§1) The binding kinetics of these purified mouse and rat monoclonal anti-CD98 antibodies for purified recombinant CD98 protein (extracellular domain, ECD) were determined by surface plasmon resonance-based measurements made on Biacore T100/T200 instruments (GE Healthcare, Piscataway, N.J.) at 25° C. using an anti-Fc capture assay approach. Binding kinetic measurements were made in the assay buffer HBS-EP+: 10 mM Hepes, pH 7.4, 150 mM NaCl, 3 mM EDTA, 0.05% Tween 20). For example, approximately 8000 RU of anti-Fc (species specific) polyclonal antibody (Thermo Fisher Scientific Inc., Rockford, Ill.) diluted in 10 mM sodium acetate (pH 4.5) was directly immobilized across a CM5 research grade biosensor chip using a standard amine coupling kit according to manufacturer's instructions and procedures at 25 μg/ml. Unreacted moieties on the biosensor surface were blocked with ethanolamine. The test antibody to be captured as a ligand was diluted in running buffer to ˜0.5 μg/mL and injected over anti-Fc surface at a flow rate of 10 μL/min. CD98 binding and dissociation were observed under a continuous flow rate of 80 μL/min. Human and cynomolgus monkey CD98 ECDs, both with a C-terminal His-tag, are used for this study (Table 3). After each cycle the anti-Fc capture surface was regenerated using 10 mM Glycine-HCl, pH 1.5. During the assay, all measurements were referenced against the capture surface alone (i.e., with no captured test antibody) and buffer-only injections (no antigen) were used for double referencing. For kinetic analysis, rate equations derived from the 1:1 Langmuir binding model were fitted simultaneously, globally and with mass transfer term included to multiple referenced antigen binding curves using Biacore T100/T200 Evaluation software.
(§2) The in vitro binding activities of the recombinant anti-CD98 chimeric mAbs were measured against both recombinant CD98 extracellular domain proteins (ECDs) and CD98-expressing cells. Briefly, binding kinetics of anti-CD98 chimera mAbs for human and cynomolgus CD98 ECDs were determined by surface plasmon resonance-based measurements as described in Example 4. Table 10 reported the association and dissociation rate constants for CD98 binding, ka (M^−1 s^−1) and kd (s^−1), and the equilibrium dissociation constant KD (M) of the interaction between antibodies and the target antigen. Binding of anti-CD98 chimera mAbs for CD98 on cell surface was evaluated by flow cytometry against CHO-K1 cell line stably transfected to express human CD98 and 3T12 cell line stably transfected to express cynomolgus monkey CD98.
(§3) The binding kinetics of the recombinant anti-CD98 chimeric antibodies for purified recombinant CD98 protein (extracellular domain, ECD) were determined by surface plasmon resonance-based measurements, as described in the Example 4.

[2] = tested on: cynomolgus monkey CD98 ECD; test: as above; conditions: cyCD98 ECD
cynomolgus monkey CD98 ECD, sequence (as listed by the source): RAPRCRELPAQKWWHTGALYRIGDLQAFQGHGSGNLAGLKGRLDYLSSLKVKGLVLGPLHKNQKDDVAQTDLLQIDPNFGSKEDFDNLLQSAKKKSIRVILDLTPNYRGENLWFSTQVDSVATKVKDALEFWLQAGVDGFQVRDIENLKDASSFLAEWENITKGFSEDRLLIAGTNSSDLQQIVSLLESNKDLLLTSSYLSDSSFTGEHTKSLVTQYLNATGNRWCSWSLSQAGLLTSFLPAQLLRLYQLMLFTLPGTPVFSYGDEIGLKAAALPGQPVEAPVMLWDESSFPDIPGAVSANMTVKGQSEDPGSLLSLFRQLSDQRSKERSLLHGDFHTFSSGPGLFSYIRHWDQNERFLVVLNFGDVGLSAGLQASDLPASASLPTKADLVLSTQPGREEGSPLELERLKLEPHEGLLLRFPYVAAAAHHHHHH
Protocol: as §1, §2, §3

Molecule | binding to human CD98 (human CD98) | ka (human CD98 ECD) [M⁻¹ s⁻¹] | kd (human CD98 ECD) [s⁻¹] | ka [2] [M⁻¹ s⁻¹] | kd [2] [s⁻¹] | % Aggregates by SEC ([1]; conjugation with synthon CZ) [%] | DAR by MS ([1]; conjugation with synthon CZ) | % Aggregates by SEC ([1]; conjugation with synthon TX) [%] | DAR by MS ([1]; conjugation with synthon TX)
huAb101: "heavy chain variable sequence of huAb101 is provided in SEQ ID NO: 106"; "light chain variable sequence ... in SEQ ID NO: 107" (antibody, V domains shown) VH: EVQLVESGGGLVKPGGSLRLSCATSGFTFIDYYMSWVRQAPGKGLEWLGFIRNKANRYTTEYSASVKGRFTISRDNSKSILYLQMNSLKTEDTAVYYCTRDRPAWFVYWGQGTLVTVSS VL: DIVMTQTPLSLPVTPGEPASISCKSSQSLLYSSNQKNYLAWYLQKPGQSPQLLIYWASTRESGVPDRFSGSGSGTDFTLKISRVEAEDVGVYYCQQYYSYPYTFGGGTKVEIK | maintained binding | 290000 | 0.0018 | 30000 | 0.00067 | 1.8 | 4.5 | 0.3 | 3.5
huAb103: "heavy chain variable sequence of huAb103 is provided in SEQ ID NO: 109"; "light chain variable sequence ... in SEQ ID NO: 107" (antibody, V domains shown) VH: EVQLVESGGGLVKPGGSLRLSCATSGFTFIDYYMSWVRQAPGKGLEWLGFIRNKAYGYTTEYSASVKGRFTISRDNSKSILYLQMNSLKTEDTAVYYCTRDRPAWFVYWGQGTLVTVSS VL: DIVMTQTPLSLPVTPGEPASISCKSSQSLLYSSNQKNYLAWYLQKPGQSPQLLIYWASTRESGVPDRFSGSGSGTDFTLKISRVEAEDVGVYYCQQYYSYPYTFGGGTKVEIK | maintained binding | 180000 | 0.00059 | 31000 | 0.00044 | 15.9 | 4.4 | 0.9 | 3.8

Second part, led by results:

binding to human CD98 (human CD98) | ka (human CD98 ECD) [M⁻¹ s⁻¹] | kd (human CD98 ECD) [s⁻¹] | ka [2] [M⁻¹ s⁻¹] | kd [2] [s⁻¹] | Molecule | % Aggregates by SEC ([1]; conjugation with synthon CZ) [%] | DAR by MS ([1]; conjugation with synthon CZ) | % Aggregates by SEC ([1]; conjugation with synthon TX) [%] | DAR by MS ([1]; conjugation with synthon TX)
maintained binding | 140000 | 2.4e-05 | 38000 | 5.3e-05 | huAb105: "heavy chain variable sequence of huAb105 is provided in SEQ ID NO: 111"; "light chain variable sequence ... in SEQ ID NO: 112" (antibody, V domains shown) VH: EVQLVESGGGLVQPGGSLRLSCAASGFTFSDYTMAWVRQAPGKGLEWVATIIYSGRGTYYRDAVKGRFTISRDNAKNTLYLQMNSLRAEDTAVYYCARQSDHTYYYWGYFDYWGQGTMVTVSS VL: DIVMTQTPLSLPVTPGEPASINCKSSQSLLFSGNQKNYLAWYLQKPGQSPQLLIYWASTRQSGVPDRFSGSGSGTDFTLKISRVEAEDVGIYYCQQYYDVPYTFGQGTKLEIK | – | 1.2 | 0.6 | 1.7
maintained binding | 160000 | 0.00017 | 26000 | 0.00031 | huAb109: "heavy chain variable sequence of huAb109 is provided in SEQ ID NO: 116"; "light chain variable sequence ... in SEQ ID NO: 117" (antibody, V domains shown) VH: EVQLVESGGGLVQPGGSLRLSCAASGFTFSDYTMAWVRQAPGKGLEWVATIIYDARGTYYRDAVKGRFTISRDNAKNTLYLQMNSLRAEDTAVYYCARQSDDTYYYWGYFDYWGQGTMVTVSS VL: DIVMTQTPLSLPVTPGEPASINCKSSQSLLFSGNQKNYLAWYLQKPGQSPQLLIYWASTRQSGVPDRFSGSGSGTDFTLKISRVEAEDVGIYYCQQYYSSPYTFGQGTKLEIK | 2.5 | 2.1 | 1.0 | 2.9
maintained binding | 110000 | 3.8e-05 | 33000 | 8.7e-05 | huAb107: "heavy chain variable sequence of huAb107 is provided in SEQ ID NO: 114"; "light chain variable sequence ... in SEQ ID NO: 112" (antibody, V domains shown) VH: EVQLVESGGGLVQPGGSLRLSCAASGFTFSDYTMAWVRQAPGKGLEWVATIIYSGRGTYYRDAVKGRFTISRDNAKNTLYLQMNSLRAEDTAVYYCARQSDDTYYYWGYFDYWGQGTMVTVSS VL: DIVMTQTPLSLPVTPGEPASINCKSSQSLLFSGNQKNYLAWYLQKPGQSPQLLIYWASTRQSGVPDRFSGSGSGTDFTLKISRVEAEDVGIYYCQQYYDVPYTFGQGTKLEIK | 1.9 | 2.2 | 1.5 | 3.1
